# Test results from patent US20260048120A1.
# Target: Fas receptor (Fas, CD95) on human T cells (human) (UniProt P25445)
# Assay: cell-based or functional assay
# UniProt P25445, sequence (P25445 26-335): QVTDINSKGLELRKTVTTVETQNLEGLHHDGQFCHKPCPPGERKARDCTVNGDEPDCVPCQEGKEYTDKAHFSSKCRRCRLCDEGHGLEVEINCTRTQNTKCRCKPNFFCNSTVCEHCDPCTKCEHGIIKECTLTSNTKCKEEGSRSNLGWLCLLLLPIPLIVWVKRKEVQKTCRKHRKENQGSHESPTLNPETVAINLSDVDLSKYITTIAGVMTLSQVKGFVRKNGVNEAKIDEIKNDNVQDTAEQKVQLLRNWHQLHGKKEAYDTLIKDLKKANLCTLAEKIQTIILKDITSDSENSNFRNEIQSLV
substance,measurement,value
recombinant human FasL (BioLegend) (from UniProt P48023 134-281) (ligand),"cell survival rate (Annexin V- & DAPI-) after about 16 h of 100 ng/mL FasL, SPPL3-KO Jurkat T cells",63.1%
same,"cell survival rate (Annexin V- & DAPI-) after about 16 h of 100 ng/mL FasL, control (NT-KO) Jurkat T cells",25.7%
same,cell survival rate of the Cas9+ sgRNA-iBAR Jurkat T cell library after the first round of 10 ng/ml FasL,4%
same,cell survival rate of the Cas9+ sgRNA-iBAR Jurkat T cell library after the second round of 10 ng/ml FasL,44.8%
same,cell survival rate of the Cas9+ sgRNA-iBAR Jurkat T cell library after the third round of 10 ng/ml FasL,55.5%
same,share of CTV-labeled SPPL3-KO primary T cells in a 1:1 mix with CFSE-labeled NT-KO primary T cells after 16 h of 500 ng/mL FasL (49.2% without FasL),75.3%
